The results in this text go back to patent publication US20210032365A1 (Chugai, published 2021).

The target in experiment [1] is T1, Serum-derived human C1s (human, UniProt P09871 16-688).
T1 construct: The analyte was C1s purified from serum; also called hC1s
T1 sequence: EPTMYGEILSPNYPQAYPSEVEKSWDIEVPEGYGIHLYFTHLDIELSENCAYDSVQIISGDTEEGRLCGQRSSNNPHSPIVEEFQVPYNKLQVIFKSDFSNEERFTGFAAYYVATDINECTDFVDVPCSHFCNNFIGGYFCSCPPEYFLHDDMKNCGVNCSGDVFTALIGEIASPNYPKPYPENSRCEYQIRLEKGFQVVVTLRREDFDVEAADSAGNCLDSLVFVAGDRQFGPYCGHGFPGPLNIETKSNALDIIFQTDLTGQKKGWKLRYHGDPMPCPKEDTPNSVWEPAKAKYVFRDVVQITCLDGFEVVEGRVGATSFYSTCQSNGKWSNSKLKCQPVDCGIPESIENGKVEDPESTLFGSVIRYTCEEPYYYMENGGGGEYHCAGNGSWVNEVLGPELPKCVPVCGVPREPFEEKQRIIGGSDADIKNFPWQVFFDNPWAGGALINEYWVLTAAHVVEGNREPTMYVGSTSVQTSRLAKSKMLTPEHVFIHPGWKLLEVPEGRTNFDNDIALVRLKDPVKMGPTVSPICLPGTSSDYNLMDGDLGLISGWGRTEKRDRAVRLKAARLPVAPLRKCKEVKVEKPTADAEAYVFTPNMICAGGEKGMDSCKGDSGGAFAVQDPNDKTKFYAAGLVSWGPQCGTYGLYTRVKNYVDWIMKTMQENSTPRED
As to the kind of experiment: SPR Biacore T200, 37 C, antibody captured on protein A/G, C1s at 50 nM, pH 7.4, 1.2 mM CaCl2. How it is done: (§1) The binding affinity of all histidine-substituted variants at pH 7.4 and pH 5.8 were determined at 37 degrees C. using Biacore T200 instrument (GE Healthcare). Recombinant Protein A/G (Pierce) was immobilized onto all flow cells of a CM4 sensor chip using amine coupling kit (GE Healthcare). Antibodies and analytes were prepared in 7(+) buffer (20 mM ACES, 150 mM NaCl, 1.2 mM CaCl2), 0.05% Tween 20, 0.005% NaN3, pH 7.4) or 5(+) buffer (20 mM ACES, 150 mM NaCl, 1.2 mM CaCl2, 0.05% Tween 20, 0.005% NaN3, pH 5.8). Each antibody was captured onto the sensor surface by protein A/G. Antibody capture levels were aimed at 200 resonance unit (RU). Serum-derived human C1s was injected at 50 nM, followed by dissociation. Sensor surface was regenerated each cycle with 10 mM Glycine-HCl pH 1.5. […] An additional dissociation phase at pH 5.8 was integrated immediately after the dissociation phase at pH 7.4. This dissociation rate in 5(+) buffer was determined by processing and fitting data using Scrubber 2.0 (BioLogic Software) curve fitting software (Table 9).

Experiment [2] concerns the target T1, Serum-derived human C1s. As to the kind of experiment: SPR Biacore T200, 37 C, ratio of dissociation rates pH 5.8 / pH 7.4, 1.2 mM CaCl2. On the procedure: as §1
In general terms: SPR reads the build-up and loss of mass on a sensor chip optically.

In experiment [3] the target is T1, Serum-derived human C1s. As to the kind of experiment: SPR Biacore T200, 37 C, added dissociation phase at pH 5.8 (1.2 mM CaCl2) straight after that at pH 7.4. On the procedure:
as §1

The target in experiment [4] is T2, human C1s (human, UniProt P09871 16-688).
T2 construct: Analyte in the Biacore assays; also called hC1s; serum-derived human C1s (CompTech)
T2 sequence: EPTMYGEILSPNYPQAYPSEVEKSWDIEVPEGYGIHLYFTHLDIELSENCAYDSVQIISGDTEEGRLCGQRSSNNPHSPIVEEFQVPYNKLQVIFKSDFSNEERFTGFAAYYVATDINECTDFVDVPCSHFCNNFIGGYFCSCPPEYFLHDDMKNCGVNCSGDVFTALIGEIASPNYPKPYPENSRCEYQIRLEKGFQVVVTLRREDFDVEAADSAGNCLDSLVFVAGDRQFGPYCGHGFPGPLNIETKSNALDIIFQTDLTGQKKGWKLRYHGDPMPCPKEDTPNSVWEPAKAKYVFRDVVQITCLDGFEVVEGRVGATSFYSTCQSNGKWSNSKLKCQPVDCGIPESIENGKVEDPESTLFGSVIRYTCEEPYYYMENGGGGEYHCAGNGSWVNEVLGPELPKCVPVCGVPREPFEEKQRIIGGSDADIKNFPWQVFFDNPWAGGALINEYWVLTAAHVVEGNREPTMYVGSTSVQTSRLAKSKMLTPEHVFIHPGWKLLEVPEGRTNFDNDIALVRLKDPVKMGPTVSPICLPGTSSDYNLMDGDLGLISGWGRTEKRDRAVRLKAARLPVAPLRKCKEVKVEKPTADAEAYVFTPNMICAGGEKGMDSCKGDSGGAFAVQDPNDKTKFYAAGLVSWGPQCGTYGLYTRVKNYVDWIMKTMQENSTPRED
As to the kind of experiment: SPR; koff (5.8+ of 775+): extra dissociation phase at pH 5.8 (1.2 mM Ca) right after the pH 7.4 dissociation, Scrubber fit. On the procedure:
as §1, with “CaCl2,” for “CaCl2),”, “CaCl2),” for “CaCl2,”, “Serum-derived human C1s was injected at 50 nM, followed by dissociation.” left out, “software.” for “software (Table 9).”

Experiment [5] deals with T2, human C1s. As to the kind of experiment: SPR; KD at pH 5.8 over KD at pH 7.4, both 1.2 mM Ca. How it is done: as §1, with “CaCl2,” for “CaCl2),”, “CaCl2),” for “CaCl2,”, “Serum-derived human C1s was injected at 50 nM, followed by dissociation.” left out, “software. […]” for “software (Table 9).”
Experiment [6] addresses T2, human C1s. As to the kind of experiment: SPR (Biacore T200, 37C), Ab captured on protein A/G, serum C1s 50 and 200 nM; pH 5.8, 1.2 mM Ca. How it is done: as §1, with “CaCl2,” for “CaCl2),”, “CaCl2),” for “CaCl2,”, “Serum-derived human C1s was injected at 50 nM, followed by dissociation.” left out, “software.” for “software (Table 9).”
Experiment [7] concerns the target T2, human C1s. The experiment can be described thus: SPR (Biacore T200, 37C), Ab captured on protein A/G, serum C1s 12.5 and 50 nM; pH 7.4, 1.2 mM Ca. On the procedure:
as §1, with “CaCl2,” for “CaCl2),”, “CaCl2),” for “CaCl2,”, “Serum-derived human C1s was injected at 50 nM, followed by dissociation.” left out, “software.” for “software (Table 9).”

Experiment [8] addresses T2, human C1s. The experiment can be described thus: SPR (Biacore T200, 37C), Ab captured on protein A/G, serum C1s 200 and 800 nM; pH 5.8, 1.2 mM Ca. How it is done: as §1, with “CaCl2,” for “CaCl2),”, “CaCl2),” for “CaCl2,”, “Serum-derived human C1s was injected at 50 nM, followed by dissociation.” left out, “software.” for “software (Table 9).”

B1: C1_IPN009VH2-SG4GK/IPN009VK3-SK1 (antibody, human IgG4 S228P, kappa)
heavy: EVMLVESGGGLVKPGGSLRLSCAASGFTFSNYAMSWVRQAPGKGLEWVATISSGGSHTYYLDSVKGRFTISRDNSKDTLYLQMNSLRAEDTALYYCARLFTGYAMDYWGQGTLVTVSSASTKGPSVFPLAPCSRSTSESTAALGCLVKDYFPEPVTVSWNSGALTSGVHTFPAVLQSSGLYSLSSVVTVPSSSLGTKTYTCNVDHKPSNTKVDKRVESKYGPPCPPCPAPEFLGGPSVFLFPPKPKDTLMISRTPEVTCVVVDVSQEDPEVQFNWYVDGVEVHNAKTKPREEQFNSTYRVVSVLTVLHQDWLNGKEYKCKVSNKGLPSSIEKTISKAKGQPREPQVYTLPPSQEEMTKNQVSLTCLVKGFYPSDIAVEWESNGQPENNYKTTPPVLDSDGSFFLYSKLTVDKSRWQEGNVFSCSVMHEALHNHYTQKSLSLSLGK
light: QIVLTQSPATLSLSPGERATLSCTASSSVSSSYLHWYQQKPGKAPKLWIYSTSNLASGVPSRFSGSGSGTDYTLTISSLQPEDFATYYCHQYYRLPPITFGQGTKLEIKRTVAAPSVFIFPPSDEQLKSGTASVVCLLNNFYPREAKVQWKVDNALQSGNSQESVTEQDSKDSTYSLSSTLTLSKADYEKHKVYACEVTHQGLSSPVTKSFNRGEC
notes: also called IPN009VH2/IPN009VK3; IPN09VH2/IPN09VK3
In general, koff refers to a measure of how fast the partners let go of each other. As usually defined, the kon is the second-order rate constant of association. In the experiment with Serum-derived human C1s [1], B1 registered a koff of 0.00037 s⁻¹ and a kon of 298000 M⁻¹ s⁻¹. Also, the “koff (5.8+ of 775+)/koff (7.4+)” value with Serum-derived human C1s [2] is 0.4. For the same molecule, the koff with Serum-derived human C1s [3] was found to be 0.000148 s⁻¹.

B2: IPN009VH2/IPN93L0023-SG136 (antibody, human IgG1, kappa, name in Kabat numbering)
heavy: EVMLVESGGGLVKPGGSLRLSCAASGFTFSNYAMSWVRQAPGKGLEWVATISSGGSHTYYLDSVKGRFTISRDNSKDTLYLQMNSLRAEDTALYYCARLFTGYAMDYWGQGTLVTVSSASTKGPSVFPLAPSSKSTSGGTAALGCLVKDYFPEPVTVSWNSGALTSGVHTFPAVLQSSGLYSLSSVVTVPSSSLGTQTYICNVNHKPSNTKVDKKVEPKSCDKTHTCPPCPAPELRRGPSVFLFPPKPKDTLMISRTPEVTCVVVDVSHEDPEVKFNWYVDGVEVHNAKTKPREEQYNSTYRVVSVLTVLHQDWLNGKEYKCKVSNKGLPSSIEKTISKAKGQPREPQVYTLPPSREEMTKNQVSLTCLVKGFYPSDIAVEWESNGQPENNYKTTPPVLDSDGSFFLYSKLTVDKSRWQQGNVFSCSVMHEALHNHYTQKSLSLSP
light: QIVLTQSPATLSLSPGERATLSCTASSSVSSSYLHWYQQKPGKAPKLWIYSTSNLASGVPSRFSGSGSGTDYTLTISSLQPEDFATYYCHQYYRHPPITFGQGTKLEIKRTVAAPSVFIFPPSDEQLKSGTASVVCLLNNFYPREAKVQWKVDNALQSGNSQESVTEQDSKDCTYSLSSTLTLSKADYEKHKVYACEVTHQGLSSPVTKSFNRGEC
notes: also called IPN009VH2/IPN93L0023 (lot PPU2043)
By Kd is commonly meant a measure of binding affinity in units of concentration. For the molecule B2, the koff worked out at 0.000691 s⁻¹ with human C1s [4] and 0.000628 s⁻¹ with human C1s [7]. For the same molecule, the “KD (5.8+)/KD (7.4+)” value in the experiment with human C1s [5] was 0.9. The Kd in the experiment with human C1s [6] is 2.48 nM; in the experiment with human C1s [7], 2.77 nM.

B3: C1_IPN92H0012-SG4GK/IPN009VK3-SK1 (antibody, V domains shown)
VH: EVMLVESGGGLVKPGGSLRLSCAASGFTFSNYAMSWVRQAPGKGLEWVATHSSGGSHTYYLDSVKGRFTISRDNSKDTLYLQMNSLRAEDTALYYCARLFTGYAMDYWGQGTLVTVSS
VL: QIVLTQSPATLSLSPGERATLSCTASSSVSSSYLHWYQQKPGKAPKLWIYSTSNLASGVPSRFSGSGSGTDYTLTISSLQPEDFATYYCHQYYRLPPITFGQGTKLEIKR
notes: Single histidine variant of the VH IPN009VH2, with SG4GK and SK1 constant regions
In the experiment with Serum-derived human C1s [1], B3 came in with a koff of 0.00192 s⁻¹ and a kon of 183000 M⁻¹ s⁻¹. In addition, the “koff (5.8+ of 775+)/koff (7.4+)” value in the experiment with Serum-derived human C1s [2] was 0.57. The same molecule registered a koff with Serum-derived human C1s [3] of 0.00109 s⁻¹.

B4: C1_IPN009VH2-SG4GK/IPN93L0026-SK1 (antibody, V domains shown)
VH: EVMLVESGGGLVKPGGSLRLSCAASGFTFSNYAMSWVRQAPGKGLEWVATISSGGSHTYYLDSVKGRFTISRDNSKDTLYLQMNSLRAEDTALYYCARLFTGYAMDYWGQGTLVTVSS
VL: QIVLTQSPATLSLSPGERATLSCTASSSVSSSYLHWYQQKPGKAPKLWIYSTSNLASGVPSRFSGSGSGTDYTLTISSLQPEDFATYYCHQYYRLPPHTFGQGTKLEIKR
notes: It is read here as I96H (Kabat) in the VL IPN009VK3
On to B4, for which, in the experiment with Serum-derived human C1s [1], the Kd is 4.28 nM, the koff was 0.0015 s⁻¹ and the kon came to 350000 M⁻¹ s⁻¹. Further, the “koff (5.8+ of 775+)/koff (7.4+)” value in the experiment with Serum-derived human C1s [2] turned out to be 0.77. In addition, the koff in the experiment with Serum-derived human C1s [3] was determined as 0.00115 s⁻¹.

B5: IPN92H0281/IPN93L0024-SG136 (antibody, human IgG1, kappa, name in Kabat numbering)
heavy: EVMLVESGGGLVKPGGSLRLSCAASGFTFSNYAMSWVRQAPGKGLEWVATISSGGSKTYELDSVDERFTISRDNSKDTLYLQMNSLRAEDTALYYCARLFTKHAMDYWGQGTLVTVSSASTKGPSVFPLAPSSKSTSGGTAALGCLVKDYFPEPVTVSWNSGALTSGVHTFPAVLQSSGLYSLSSVVTVPSSSLGTQTYICNVNHKPSNTKVDKKVEPKSCDKTHTCPPCPAPELRRGPSVFLFPPKPKDTLMISRTPEVTCVVVDVSHEDPEVKFNWYVDGVEVHNAKTKPREEQYNSTYRVVSVLTVLHQDWLNGKEYKCKVSNKGLPSSIEKTISKAKGQPREPQVYTLPPSREEMTKNQVSLTCLVKGFYPSDIAVEWESNGQPENNYKTTPPVLDSDGSFFLYSKLTVDKSRWQQGNVFSCSVMHEALHNHYTQKSLSLSP
light: QIVLTQSPATLSLSPGERATLSCTASSSVSSSYLHWYQQKPGKAPKLWIYSTSNLASGVPSRFSGSGSGTDYTLTISSLQPEDFATYYCHQYYRLHPITFGQGTKLEIKRTVAAPSVFIFPPSDEQLKSGTASVVCLLNNFYPREAKVQWKVDNALQSGNSQESVTEQDSKDCTYSLSSTLTLSKADYEKHKVYACEVTHQGLSSPVTKSFNRGEC
notes: also called IPN92H0281/IPN93L0024 (lot PPU2047); IPN92H281/IPN93L0024-SG136
Regarding B5, in the experiment with human C1s [8], the Kd worked out at 123 nM, the koff came to 0.0267 s⁻¹ and the kon stood at 217000 M⁻¹ s⁻¹. In the experiment with human C1s [4], this molecule displayed a koff of 0.0247 s⁻¹. Moreover, in the experiment with human C1s [5], the “KD (5.8+)/KD (7.4+)” value was 60.9. In the experiment with human C1s [7], this molecule yielded a Kd of 2.02 nM and a koff of 0.000645 s⁻¹.
